Assay results reported in paper doi:10.1101/805184 (bioRxiv, 2019).

T1: Snf12 (S. cerevisiae, UniProt P53628 1-566)
T1 sequence: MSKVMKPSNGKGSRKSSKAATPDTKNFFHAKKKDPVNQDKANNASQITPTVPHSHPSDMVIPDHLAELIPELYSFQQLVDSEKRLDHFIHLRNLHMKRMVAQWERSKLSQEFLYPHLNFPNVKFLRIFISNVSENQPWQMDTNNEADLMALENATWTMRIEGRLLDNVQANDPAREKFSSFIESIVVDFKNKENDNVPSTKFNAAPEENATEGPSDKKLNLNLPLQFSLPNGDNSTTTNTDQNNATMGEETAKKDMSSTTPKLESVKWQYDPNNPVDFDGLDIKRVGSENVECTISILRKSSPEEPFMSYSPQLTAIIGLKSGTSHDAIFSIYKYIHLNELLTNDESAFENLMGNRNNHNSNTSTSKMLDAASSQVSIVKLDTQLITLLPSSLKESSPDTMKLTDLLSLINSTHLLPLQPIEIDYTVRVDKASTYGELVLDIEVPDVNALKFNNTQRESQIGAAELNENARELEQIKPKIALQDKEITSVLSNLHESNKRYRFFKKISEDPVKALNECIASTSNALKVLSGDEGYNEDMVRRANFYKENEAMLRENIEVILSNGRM

T2: Swi1 (S. cerevisiae, UniProt P09547 1-1314)
T2 sequence: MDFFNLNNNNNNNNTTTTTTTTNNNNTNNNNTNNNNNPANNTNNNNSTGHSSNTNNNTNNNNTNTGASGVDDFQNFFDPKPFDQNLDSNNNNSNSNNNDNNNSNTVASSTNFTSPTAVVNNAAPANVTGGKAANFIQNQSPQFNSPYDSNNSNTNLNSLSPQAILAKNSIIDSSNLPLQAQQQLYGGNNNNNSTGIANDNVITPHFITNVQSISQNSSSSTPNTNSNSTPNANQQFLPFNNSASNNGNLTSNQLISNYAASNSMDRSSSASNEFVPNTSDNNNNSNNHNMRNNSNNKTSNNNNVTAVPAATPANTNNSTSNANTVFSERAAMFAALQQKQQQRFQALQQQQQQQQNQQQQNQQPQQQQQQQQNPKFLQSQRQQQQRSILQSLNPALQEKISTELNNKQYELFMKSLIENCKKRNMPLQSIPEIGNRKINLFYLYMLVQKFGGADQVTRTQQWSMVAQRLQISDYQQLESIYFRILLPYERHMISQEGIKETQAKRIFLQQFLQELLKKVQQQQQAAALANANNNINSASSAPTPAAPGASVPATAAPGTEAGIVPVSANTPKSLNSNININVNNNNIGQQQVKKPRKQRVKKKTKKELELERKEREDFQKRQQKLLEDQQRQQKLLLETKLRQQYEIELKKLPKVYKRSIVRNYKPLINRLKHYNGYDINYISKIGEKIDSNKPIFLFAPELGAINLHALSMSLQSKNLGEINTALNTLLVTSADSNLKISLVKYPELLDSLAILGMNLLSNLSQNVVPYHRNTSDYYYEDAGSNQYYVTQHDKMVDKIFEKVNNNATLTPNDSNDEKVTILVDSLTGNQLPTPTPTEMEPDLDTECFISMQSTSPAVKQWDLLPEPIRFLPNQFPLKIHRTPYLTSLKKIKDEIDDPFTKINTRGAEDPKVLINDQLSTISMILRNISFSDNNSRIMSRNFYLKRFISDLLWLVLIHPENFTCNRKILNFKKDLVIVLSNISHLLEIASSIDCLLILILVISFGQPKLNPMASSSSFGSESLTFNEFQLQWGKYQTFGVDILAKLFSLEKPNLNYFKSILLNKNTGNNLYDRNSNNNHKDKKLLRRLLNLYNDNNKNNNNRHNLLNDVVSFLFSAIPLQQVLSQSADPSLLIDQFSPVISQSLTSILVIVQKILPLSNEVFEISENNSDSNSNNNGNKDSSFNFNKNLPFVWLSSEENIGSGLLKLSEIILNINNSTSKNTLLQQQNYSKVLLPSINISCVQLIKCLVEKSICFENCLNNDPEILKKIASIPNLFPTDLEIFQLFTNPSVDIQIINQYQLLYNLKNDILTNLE

B1: Swi3 (natural protein)
chain: MENTLGEGSTVNASVDVDQHGNDNNSDSNANAAVAGVANTDTAGEESQQQDESLKDEATVPNTRDAESEAITVTAKQQPTMQANKLDSQETPSTEESRAQNVFGQDNEDSDNLFGETESSVSNNEANTPSIPTNPVDNENNKPAIKEDSTIQDSNGDVKNMEDVKIQKEEEPENNTVIEGVKEESQPDENTKEMDEVEEDDEDDDQPMISPDNSIFGDTKSESKQLGNTSSVANTPSEIPDAHKAEQEDIIEKTESVDKKVDSGEERNEQEREIMNDHSKSANPKKTTITRVEPETFEIPQAHEIVIPSYSKWFNLEKIHSIEVQSLPEFFTNRIPSKTPEVYMRYRNFMVNSYRLNPNEYFSVTTARRNVSGDAAALFRLHKFLTKWGLINYQVDSKLLPKNIEPPLTSQYSTRHDAPRGLFPFESYKPSVQLPDMAKLKKMMNTSDSESTLYKYLKESKRKYDEITHPPSTTDDENGDKNDNGGKMNNEVSTSTSMTGDANLLEEGETSRPLKKVKILEQIDENWSKEDLQKLLKGIQEFGADWYKVAKNVGNKSPEQCILRFLQLPIEDKFLYGDGNGKGDNDNGLGPLKYAPHLPFSKSENPVLSTIAFLVGLVNPKTVQSMTQRAIQSAESIKSQKEEISDQKPIEHIKEGSEIAISSLGYRSHIFATNEERQMNFLTNELIRLQMEKLDAKLNHLKKLEKFMELERKTLERQQENLLIQRLNFNQNSSKIVNVLSKCLNLISDSNINNSSVAEKEEIRSQIDHFKSMLSKPETLSIGKNPFNKPNIETGENHNGQSISNENDVKPISIEAPQFYRYWSA

Legend:
Assay in all cases: cryo-EM structure
[1] = biological target: B1
[2] = biological target: T1, Snf12
[3] = biological target: T2, Swi1
[4] = biological target: Snf2 (S. cerevisiae, UniProt P22082 1-1703)
[5] = biological target: the molecule itself
[6] = biological target: Snf5 (S. cerevisiae, UniProt P18480 1-905)

Sequence of Snf2 (P22082 whole entry): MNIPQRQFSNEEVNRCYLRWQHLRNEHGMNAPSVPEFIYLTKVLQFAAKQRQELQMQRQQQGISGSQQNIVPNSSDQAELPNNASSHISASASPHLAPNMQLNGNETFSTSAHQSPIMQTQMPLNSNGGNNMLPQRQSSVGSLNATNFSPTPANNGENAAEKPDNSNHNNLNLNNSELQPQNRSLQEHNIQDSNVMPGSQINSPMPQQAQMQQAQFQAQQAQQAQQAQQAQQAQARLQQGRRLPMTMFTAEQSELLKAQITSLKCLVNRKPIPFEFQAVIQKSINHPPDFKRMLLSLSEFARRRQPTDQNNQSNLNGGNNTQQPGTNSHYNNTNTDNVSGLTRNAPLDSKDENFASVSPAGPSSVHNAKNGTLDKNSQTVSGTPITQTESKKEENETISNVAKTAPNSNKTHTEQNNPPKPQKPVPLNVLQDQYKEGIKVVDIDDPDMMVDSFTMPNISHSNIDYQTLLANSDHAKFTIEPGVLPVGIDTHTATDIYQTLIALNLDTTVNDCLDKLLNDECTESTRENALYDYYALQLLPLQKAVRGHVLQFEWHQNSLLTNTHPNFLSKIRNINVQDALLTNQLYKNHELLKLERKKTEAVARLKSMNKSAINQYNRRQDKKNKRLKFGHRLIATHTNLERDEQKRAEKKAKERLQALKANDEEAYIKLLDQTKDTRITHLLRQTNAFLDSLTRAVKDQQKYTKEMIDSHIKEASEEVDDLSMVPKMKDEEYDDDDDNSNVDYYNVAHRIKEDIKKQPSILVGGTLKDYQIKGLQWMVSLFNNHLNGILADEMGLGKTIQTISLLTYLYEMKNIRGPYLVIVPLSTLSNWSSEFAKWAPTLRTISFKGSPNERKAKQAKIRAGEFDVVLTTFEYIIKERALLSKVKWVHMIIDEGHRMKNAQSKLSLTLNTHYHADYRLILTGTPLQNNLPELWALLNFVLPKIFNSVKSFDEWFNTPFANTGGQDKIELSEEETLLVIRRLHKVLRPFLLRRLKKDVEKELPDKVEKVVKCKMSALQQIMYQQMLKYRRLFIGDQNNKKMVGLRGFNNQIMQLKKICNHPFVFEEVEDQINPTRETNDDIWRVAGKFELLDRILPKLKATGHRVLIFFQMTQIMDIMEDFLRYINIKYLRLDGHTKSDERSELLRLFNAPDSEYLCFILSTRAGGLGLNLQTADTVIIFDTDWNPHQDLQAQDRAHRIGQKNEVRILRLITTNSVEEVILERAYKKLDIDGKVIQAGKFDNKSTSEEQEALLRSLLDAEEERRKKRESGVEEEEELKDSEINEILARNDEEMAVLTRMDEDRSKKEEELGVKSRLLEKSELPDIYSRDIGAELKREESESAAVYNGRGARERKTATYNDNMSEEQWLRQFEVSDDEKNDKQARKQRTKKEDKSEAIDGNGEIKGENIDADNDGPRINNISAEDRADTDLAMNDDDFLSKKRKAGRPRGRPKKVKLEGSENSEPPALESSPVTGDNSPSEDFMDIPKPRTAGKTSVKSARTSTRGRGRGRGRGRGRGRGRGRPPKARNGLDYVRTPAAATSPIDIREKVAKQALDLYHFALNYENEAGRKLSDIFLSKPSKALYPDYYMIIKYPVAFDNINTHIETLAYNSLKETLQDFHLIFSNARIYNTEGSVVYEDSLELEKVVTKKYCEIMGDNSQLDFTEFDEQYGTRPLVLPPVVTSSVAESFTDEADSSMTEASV

Row | binding result [1] | binding result [2] | binding result [3] | binding result [4] | binding result [6] | Binder | stoichiometry N [5]
1 | binds | binds | binds |  |  | Snf6 (natural protein) MGVIKKKRSHHGKASRQQYYSGVQVGGVGSMGAINNNIPSLTSFAEENNYQYGYSGSSAGMNGRSLTYAQQQLNKQRQDFERVRLRPEQLSNIIHDESDTISFRSNLLKNFISSNDAFNMLSLTTVPCDRIEKSRLFSEKTIRYLMQKQHEMKTQAAELQEKPLTPLKYTKLIAAAEDGSRSTKDMIDAVFEQDSHLRYQPDGVVVHRDDPALVGKLRGDLREAPADYWTHAYRDVLAQYHEAKERIRQKEVTAGEAQDEASLQQQQQQDLQQQQQVVTTVASQSPHATATEKEPVPAVVDDPLENMFGDYSNEPFNTNFDDEFGDLDAVFF | 
2 |  |  | binds | binds | binds | B1 | 2
3 | binds |  |  |  | binds | Swp82 (natural protein) MLGEDEGNTVLEKGNNPSVKQGEVGAVFIVPKILIREHERVILKQILQILDQDELVQPPLDKFPYKKLELPKYIDELKTRDATNTSYKMIQLDAYGEKKVGSNGELFGGRHYLFNTFTFTAHMGVLLVLLQDVIKVLYQSNATHDEDEFIVQHDQILVMETSEEQTKFLAKNGVIPEESKGSFKYITARSAFVEFGASVIAGGQRIVDDYWESLAKKQNLSSHQRVFKLSTNLISKISLLRPSFQNNRISNANEISANTNNTCTISTSKFESQYPIVTEQPSAEIREAYIENFAKGEHISAIVPGQSISGTLELSAQFRVPRYHSKNSFQQALQMKAMDIPIGRHEELLAQYESQAPDGSASISLPNHIPSVNPSNKPIKRMLSSILDINVSSSKNKKSEENEMIKPMNKGQHKNNTSLNINGWKFESLPLKSAENSGKQQYYRGLPLYEKNTLLERLKQLTPNEIKELEHLHDAVFVNTGLQNVRKVRTKKWKKYWQYKAGIPIGLKRSQLDEFKNKYLKDVLAQTSVTTNFNEITNTDETITTKRVPNPNFLGNCNIKDFKPPYIYSHVNKVPQNVAGDKTAVKLDTEVKNTNANPVVATDPVAAKPDNLANFSNEVAMNN | 
